The binders below were run against T1, Active human KLK5 (human, UniProt Q9Y337 67-293) (assay: SPR, Biacore T200, 25 C; IgG from supernatant captured on anti-human Fc, human KLK5 as analyte (20-0.08 nM), 1:1 model).
T1 construct: glycosylated; also called Hu KLK5; KLK5 analyte (prepared in house)
Experimental: A goat anti-human IgG Fc specific antibody (Jackson ImmunoResearch) was immobilized on a CM5 Sensor Chip via amine coupling chemistry to a level of approximately 6000RU. Each analysis cycle consisted of capture of the anti-KLK5 IgG from supernatants to the anti Fc surface, injection of KLK5 analyte (prepared in house) for 180 s at 30 μl/min followed by 600 s dissociation. At the end of each cycle the surface was regenerated at a flowrate of 10 μL/min using a 60 s injection of 50 mM HCl followed by a 30 s injection of 5 mM NaOH and a final 60 s injection of 50 mM HCl. Human KLK5 was titrated from 20 nM to 0.08 nM (5×3-fold serial dilutions) for the supernatant in HBS-EP+ running buffer (GE Healthcare®) supplemented to a final concentration of 300 mM NaCl. Buffer blank injections were included to subtract instrument noise and drift. Kinetic parameters were determined using a 1:1 binding model using Biacore T200 Evaluation software (version 3.0). Experiments were carried out at 25° C.

| Kd | koff | kon | Binder |
| --- | --- | --- | --- |
| 0.475 nM | 0.00091 s⁻¹ | 1.91e+06 M⁻¹ s⁻¹ | Humanized antibody 10236 gL6 gH9 (antibody, V domains shown, Tested as IgG from supernatant captured by anti-human Fc) VH: EVQLQESGPGLVKPSGTLSLTCAVSGFPLSNYAMSWVRQPPGKGLEWIGDIYPSDIIDYASWAKGRVTISQDSSKTQVSLKLSSVTAADTAVYYCARDNNDYGLDIWGQGTLVTVSS VL: AYDMTQSPSSLSASVGDRVTITCQASQSISSWLAWYQQKPGKAPKLLIYLASTLASGVPSRFSGSGSGTDFTLTISSLQPEDFATYYCQQGYTNSNIINTFGGGTKVEIKR |
| 0.541 nM | 0.00105 s⁻¹ | 1.93e+06 M⁻¹ s⁻¹ | Humanized antibody 10236 gL6 gH10 (antibody, V domains shown, Tested as IgG from supernatant captured by anti-human Fc) VH: EVQLQESGPGLVKPSGTLSLTCAVSGFPLSNYAMSWVRQPPGKGLEWIGDIYPSDIIDYASWAKGRVTISVDSSKTQVSLKLSSVTAADTAVYYCARDNNDYGLDIWGQGTLVTVSS VL: AYDMTQSPSSLSASVGDRVTITCQASQSISSWLAWYQQKPGKAPKLLIYLASTLASGVPSRFSGSGSGTDFTLTISSLQPEDFATYYCQQGYTNSNIINTFGGGTKVEIKR |
| 0.337 nM | 0.000687 s⁻¹ | 2.04e+06 M⁻¹ s⁻¹ | Humanized antibody 10236 gL6 Q24K gH12 (antibody, V domains shown) VH: EVQLQESGPGLVKPSGTLSLTCAVSGFPLSNYAMSWVRQPPGKGLEWIGDIYPSDIIDYASWAKGRVTISQDSSKNQVSLKLSSVTAADTAVYYCARDNNDYGLDIWGQGTLVTVSS VL: AYDMTQSPSSLSASVGDRVTITCKASQSISSWLAWYQQKPGKAPKLLIYLASTLASGVPSRFSGSGSGTDFTLTISSLQPEDFATYYCQQGYTNSNIINTFGGGTKVEIKR |
| 0.331 nM | 0.000669 s⁻¹ | 2.03e+06 M⁻¹ s⁻¹ | Humanized antibody 10236 gL5 gH12 (antibody, V domains shown, Tested as IgG from supernatant captured by anti-human Fc) VH: EVQLQESGPGLVKPSGTLSLTCAVSGFPLSNYAMSWVRQPPGKGLEWIGDIYPSDIIDYASWAKGRVTISQDSSKNQVSLKLSSVTAADTAVYYCARDNNDYGLDIWGQGTLVTVSS VL: AYDMTQSPSSLSASVGDRVTITCQASQSISSWLAWYQQKPGKAPKLLIYLASTLASGVPSRFKGSGSGTDFTLTISSLQPEDFATYYCQQGYTNSNIINTFGGGTKVEIKR |
| 0.484 nM | 0.000929 s⁻¹ | 1.92e+06 M⁻¹ s⁻¹ | Humanized antibody 10236 gL5 gH9 (antibody, V domains shown, Tested as IgG from supernatant captured by anti-human Fc) VH: EVQLQESGPGLVKPSGTLSLTCAVSGFPLSNYAMSWVRQPPGKGLEWIGDIYPSDIIDYASWAKGRVTISQDSSKTQVSLKLSSVTAADTAVYYCARDNNDYGLDIWGQGTLVTVSS VL: AYDMTQSPSSLSASVGDRVTITCQASQSISSWLAWYQQKPGKAPKLLIYLASTLASGVPSRFKGSGSGTDFTLTISSLQPEDFATYYCQQGYTNSNIINTFGGGTKVEIKR |
| 0.333 nM | 0.000669 s⁻¹ | 2.01e+06 M⁻¹ s⁻¹ | Humanized antibody 10236 gL6 Q24R gH12 (antibody, V domains shown) VH: EVQLQESGPGLVKPSGTLSLTCAVSGFPLSNYAMSWVRQPPGKGLEWIGDIYPSDIIDYASWAKGRVTISQDSSKNQVSLKLSSVTAADTAVYYCARDNNDYGLDIWGQGTLVTVSS VL: AYDMTQSPSSLSASVGDRVTITCRASQSISSWLAWYQQKPGKAPKLLIYLASTLASGVPSRFSGSGSGTDFTLTISSLQPEDFATYYCQQGYTNSNIINTFGGGTKVEIKR |
| 0.481 nM | 0.000811 s⁻¹ | 1.69e+06 M⁻¹ s⁻¹ | Humanized antibody 10236 gL5 gH11 (antibody, V domains shown, Tested as IgG from supernatant captured by anti-human Fc) VH: EVQLQESGPGLVKPSGTLSLTCAVSGFPLSNYAMSWVRQPPGKGLEWIGDIYPSDIIDYASWAKGRVTISQDKSKTQVSLKLSSVTAADTAVYYCARDNNDYGLDIWGQGTLVTVSS VL: AYDMTQSPSSLSASVGDRVTITCQASQSISSWLAWYQQKPGKAPKLLIYLASTLASGVPSRFKGSGSGTDFTLTISSLQPEDFATYYCQQGYTNSNIINTFGGGTKVEIKR |
| 0.546 nM | 0.00107 s⁻¹ | 1.97e+06 M⁻¹ s⁻¹ | Humanized antibody 10236 gL5 gH10 (antibody, V domains shown, Tested as IgG from supernatant captured by anti-human Fc) VH: EVQLQESGPGLVKPSGTLSLTCAVSGFPLSNYAMSWVRQPPGKGLEWIGDIYPSDIIDYASWAKGRVTISVDSSKTQVSLKLSSVTAADTAVYYCARDNNDYGLDIWGQGTLVTVSS VL: AYDMTQSPSSLSASVGDRVTITCQASQSISSWLAWYQQKPGKAPKLLIYLASTLASGVPSRFKGSGSGTDFTLTISSLQPEDFATYYCQQGYTNSNIINTFGGGTKVEIKR |
